Patent US10081667B2, “Composition and method for therapeutic agent delivery during pregnancy” (University of Mississippi Medical Center, priority 2013, dated 2018)
Like-named read-outs stand apart in the source and are kept apart here.

How the values were obtained:
trophoblast cells = conditions: rat, in vivo
[1] = rat, in vivo
[2] = Plasma levels and biodistribution after chronic infusion by IP minipump GD14-GD19; assay type: in vivo, rats
Procedure: FIG. 7 includes images and graphs showing plasma levels and biodistribution of FLPs after Chronic Infusion. FIG. 7A. Rhodamine-labeled ELP or SynB1-ELP was administered chronically by IP minipump from GD14-GD19. Plasma was sampled throughout the experiment, and polypeptide levels were determined relative to standards of the injected protein. Data represent the mean±s.d. of four rats per group. FIG. 7B. Ex vivo fluorescence imaging of eight pups and corresponding placentas from one rat from each group is shown. FIG. 7C. Fluorescence intensities were quantified, corrected for autofluorescence, and fit to standards of the injected proteins. Data represent the mean±s.e. of eight placentas and eight pups per rat and four rats per group. *Statistically significant as determined by a two-way ANOVA with post-hoc Bonferroni multiple comparisons (p<0.05). **Levels were not detectable over autofluorescence.
Whether the fetal exclusion held after five days of continuous infusion of the polypeptides is also examined. ELP or SynB1-ELP was administered continuously from GD14 to GD19 using an IP minipump. […] At the dose used (30 mg/kg/day), the plasma levels were maintained at 33.94 μg/mL for ELP and 69.15 μg/mL for SynB1-ELP. These plasma levels are a reflection of many in vivo kinetic processes, including the rate of transport from the peritoneal fluid to the blood, the rate of extravasation from the blood to the tissues, and the plasma clearance rate. […] These plasma concentration data also provide useful information for the formulation of dosages when ELP is fused with therapeutic agents.
Ex vivo whole organ fluorescence analysis of the placentas is performed, pups, and organs on GD19 following five days of continuous polypeptide infusion. Relative to the acute experiment, the placental levels of the polypeptides were lower, which resulted from the difference in dose (100 mg/kg in the bolus dosing versus 30 mg/kg/day in the chronic infusion). […] The kidneys still accumulated the most polypeptide, followed by the liver and the placenta (FIG. 7C). […]

[3] = rat, in vivo; remark: listed apart in the source
[4] = Biodistribution of fluorescently labeled ELP / SynB1-ELP in pregnant rats after IV bolus (ex vivo imaging, frozen sections); design: species or system Sprague Dawley rats
Procedure: FIG. 2 includes a series of images and a graph showing the biodistribution of ELP in pregnant rats. FIG. 2A. The ELP drug carrier was labeled with AlexalFluor633 and infused into normal pregnant Sprague Dawley rats by IV injection (100 mg/kg). 4 h after injection, ex vivo images of placentas, pups, and major organs were collected using an IVIS Spectrum. FIG. 2B. Fluorescence intensity was quantified in all tissues. Error bars represent the standard deviation of 3 rats.
FIG. 3 includes a series of images and a graph illustrating placental distribution of ELP and SynB1-ELP. FIG. 3A. After IV administration of fluorescently-labeled polypeptides or saline control, placentas, pups, and major organs were removed and imaged ex vivo using an IVIS Spectrum. Polypeptide deposition in placentas and pups is shown. FIG. 3B. Fluorescence levels in placentas, pups, and major organs was quantified using Living Image software. Error bars represent the standard deviation of four rats per treatment group. FIG. 3C. Frozen sections of intact placentas and pups were cut, stained with the actin-specific rhodamine-phalloidin to allow visualization of the placenta and pups, and scanned using a florescence slide scanner. FIG. 3D. The same slides were imaged using a florescence microscope to visualize the cellular localization of the polypeptides in the placenta (100× magnification).
Pregnant Sprague Dawley rats on day 14 of gestation were injected with fluorescently labeled ELP (100 mg/kg IV). […] Placentas and pups were dissected from the amniotic sacks and imaged ex vivo using an IVIS Spectrum animal imager to detect and quantitate the ELP levels. […] In contrast, almost no ELP was detectable in the pups. The image intensities of the placentas, pups, and major organs were quantitated using Living Image software, and the results are shown in FIG. 2B. […] These high ELP levels in the placenta are unprecedented with this molecule. By way of comparison, the placenta levels are 2 to 10 fold higher than the tumors levels (Bidwell G L, et al., PloS One, 2013; Bidwell G L, 3rd, Cancer Lett., 2012).
This example also examined whether the addition of a CPP to ELP would affect its penetration across the placenta. SynB1-ELP was labeled with Alexa633 and injected as described above. For comparison, animals were injected with saline control or ELP-Alexa633 at an equivalent dose. Four hours after injection, placental, fetal, and organ levels were determined by ex vivo fluorescence imaging. […] In addition to the ex vivo fluorescence imaging, the fetal-amnio-placental complex was removed, rapidly frozen, and sectioned using a cryomicrotome. Tissue sections were stained with the actin-specific rhodamine-phalloidin to allow visualization of all tissue and imaged directly using a fluorescence slide scanner. […] The intraplacental distribution SynB1-ELP-Alexa633 differed slightly from ELP-Alexa633. […] Both polypeptides could be detected within the cells of the placenta when examined microscopically (FIG. 3D).

B1: ELP: elastin-like polypeptide drug carrier, repeats of VPGXG; unmodified carrier, fluorescently labeled for the tests (protein)
chain: VGVPGAGVPGGGVPGAGVPGGGVPGAGVPGGGVPGAGVPGGGVPGAGVPGGGVPGAGVPGGGVPGAGVPGGGVPGAGVPGVGVPGAGVPGGGVPGAGVPGGGVPGAGVPGGGVPGAGVPGGGVPGAGVPGGGVPGAGVPGGGVPGAGVPGGGVPGAGVPGVGVPGAGVPGGGVPGAGVPGGGVPGAGVPGGGVPGAGVPGGGVPGAGVPGGGVPGAGVPGGGVPGAGVPGGGVPGAGVPGVGVPGAGVPGGGVPGAGVPGGGVPGAGVPGGGVPGAGVPGGGVPGAGVPGGGVPGAGVPGGGVPGAGVPGGGVPGAGVPGVGVPGAGVPGGGVPGAGVPGGGVPGAGVPGGGVPGAGVPGGGVPGAGVPGGGVPGAGVPGGGVPGAGVPGGGVPGAGVPGVGVPGAGVPGGGVPGAGVPGGGVPGAGVPGGGVPGAGVPGGGVPGAGVPGGGVPGAGVPGGGVPGAGVPGGGVPGAGVPGVGVPGAGVPGGGVPGAGVPGGGVPGAGVPGGGVPGAGVPGGGVPGAGVPGGGVPGAGVPGGGVPGAGVPGGGVPGAGVPGVGVPGAGVPGGGVPGAGVPGGGVPGAGVPGGGVPGAGVPGGGVPGAGVPGGGVPGAGVPGGGVPGAGVPGGGVPGAGVPGGGVPGAGVPGGGVPGAGVPGGGVPGAGVPGGGVPGAGVPGGGVPGAGVPGGGVPGAGVPGGGVPGAGVPGGGVPGAGVPGVGVPGAGVPGGGVPGAGVPGGGVPGAGVPGGGVPGAGVPGGGVPGAGVPGGGVPGAGVPGGGVPGAGVPGGGVPGAGVPG
modifications: Alexa633 label; synthetic ELP
notes: elastin-like polypeptide drug carrier, repeats of VPGXG; unmodified carrier, fluorescently labeled for the tests
**Q.** Which “accumulation in trophoblast cells” value (trophoblast cells) does the source give for B1 here?
**A.** accumulated in the cytoplasm of trophoblast cells

**Q.** What about the “polypeptide in interior of chorionic villi (fetal blood)” value (trophoblast cells) of the same molecule?
**A.** contained no ELP or SynB1-ELP

**Q.** And the level in pups [1]?
**A.** Neither peptide was detectable in the pups

**Q.** What about the “steady state plasma level” value ([2]; 30 mg/kg/day IP minipump GD14-GD19) of the same molecule?
**A.** 33.94 µg/mL

**Q.** What about the placental accumulation ([2]; GD19, five days continuous infusion) of the same molecule?
**A.** accumulated at high levels in the placenta

**Q.** And the level in pups ([2]; GD19, five days continuous infusion, 30 mg/kg/day)?
**A.** undetectable over autofluorescence in the pups

**Q.** And the “total signal in degraded bands <50 kDa” value [3]?
**A.** less than 20%

**Q.** What about the “placental accumulation relative to other organs” value ([4]; 4 h after 100 mg/kg IV) of the same molecule?
**A.** nearly equivalent to levels in the liver

**Q.** What about the “level in pups, ex vivo fluorescence imaging” value ([4]; 4 h after 100 mg/kg IV, GD14) of the same molecule?
**A.** barely detectable over autofluorescence in the pups

**Q.** What about the “placental accumulation, ex vivo fluorescence imaging” value ([4]; 4 h after 100 mg/kg IV, GD14) of the same molecule?
**A.** accumulated strongly in the placenta

**Q.** What about the “placental accumulation, frozen sections, fluorescence slide scanner” value ([4]; 4 h after IV injection) of the same molecule?
**A.** accumulated at high levels in the placenta relative to autofluorescence controls

**Q.** And the “polypeptide in pups, frozen sections, fluorescence slide scanner” value ([4]; 4 h after IV injection)?
**A.** no polypeptide was detectable in the pups

**Q.** What about the intraplacental distribution ([4]; frozen sections) of the same molecule?
**A.** accumulated at high levels throughout the placenta

**Q.** And the half-life ([4]; pregnant rats GD14, 100 mg/kg IV)?
**A.** Four hours after injection, which is about one half-life
